The results in this text go back to patent US20090300780A1 (AbbVie / Abbott, published 2009).

The target of this assay is T1, murine NGF purified from submandibular glands (murine, UniProt P01139 122-239, limits assumed).
T1 construct: Native protein purified from tissue; also called NGF neurotrophin
Briefly: ELISA, murine NGF coated at 10 ug/ml, COS supernatants with IgG1, detection by anti-human Cgamma, OD450. The procedure:
For immobilization on plastic, 96 well Maxi sorb plates were incubated at 4° C. overnight with a solution containing the respective ligands of the two antibodies (the purified recombinant immunoadhesin TrkA Camel and the murine NGF purified from submandibular glands) at a concentration of 10 μg/ml in 0.1M pH 9.6 sodium carbonate buffer.
After one hour of blocking with PBS containing 3% milk (MPBS) at ambient temperature, concentrated supernatants were incubated with serial dilutions (1:2, 1.20; 1:200) and in parallel also with the supernatant of non transfected COS cells (negative control).

T1 sequence (P01139 122-239 limits assumed): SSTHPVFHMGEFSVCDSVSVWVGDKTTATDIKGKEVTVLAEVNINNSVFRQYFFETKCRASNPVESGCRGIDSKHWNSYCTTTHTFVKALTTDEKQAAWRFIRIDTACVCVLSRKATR

B1: alpha D11 humanized antibody (Hum alpha D11), IgG1 form (antibody, V domains shown)
VH: EVQLVESGGGLVQPGGSLRLSCAASGFSLTNNNVNWVRQAPGKGLEWVGGVWAGGATDYNSALKSRFTISRDNSKNTAYLQMNSLRAEDTAVYYCARDGGYSSSTLYAMDAWGQGTLVTVSS
VL: DIQMTQSPSSLSASVGDRVTITCRASEDIYNALAWYQQKPGKAPKLLIYNTDTLHTGVPSRFSGSGSGTDYTLTISSLQPEDFATYFCQHYFHYPRTFGQGTKVEIK
notes: also called Hum αD11; Hum alpha D11 VH / Hum alpha D11Vk
Regarding B1, the binding result was “binds”.
